From US9815881B2, “Method of inducing labor or treating pre-eclampsia by administering relaxin analogs” (The Board of Trustees of the Leland Stanford Junior …, priority 2009, dated 2017)
“Also recorded” adds a separate entry of the source. Where no end group is shown, it is not given here.

Key:
LGR7 [1] = molecular target: T1, LGR7 (Homo sapiens, UniProt Q9HBX9); experiment: Receptor-binding assay: competition for 125I-labeled RLN2 binding to LGR7-expressing HEK293T cells; settings: for LGR7-binding activity (result in words): competition for labeled RLN2 binding to LGR7
T1 construct: HEK293T cells stably expressing recombinant LGR7 or LGR8; expressed in transfected cells
T1 sequence (Q9HBX9 1-757): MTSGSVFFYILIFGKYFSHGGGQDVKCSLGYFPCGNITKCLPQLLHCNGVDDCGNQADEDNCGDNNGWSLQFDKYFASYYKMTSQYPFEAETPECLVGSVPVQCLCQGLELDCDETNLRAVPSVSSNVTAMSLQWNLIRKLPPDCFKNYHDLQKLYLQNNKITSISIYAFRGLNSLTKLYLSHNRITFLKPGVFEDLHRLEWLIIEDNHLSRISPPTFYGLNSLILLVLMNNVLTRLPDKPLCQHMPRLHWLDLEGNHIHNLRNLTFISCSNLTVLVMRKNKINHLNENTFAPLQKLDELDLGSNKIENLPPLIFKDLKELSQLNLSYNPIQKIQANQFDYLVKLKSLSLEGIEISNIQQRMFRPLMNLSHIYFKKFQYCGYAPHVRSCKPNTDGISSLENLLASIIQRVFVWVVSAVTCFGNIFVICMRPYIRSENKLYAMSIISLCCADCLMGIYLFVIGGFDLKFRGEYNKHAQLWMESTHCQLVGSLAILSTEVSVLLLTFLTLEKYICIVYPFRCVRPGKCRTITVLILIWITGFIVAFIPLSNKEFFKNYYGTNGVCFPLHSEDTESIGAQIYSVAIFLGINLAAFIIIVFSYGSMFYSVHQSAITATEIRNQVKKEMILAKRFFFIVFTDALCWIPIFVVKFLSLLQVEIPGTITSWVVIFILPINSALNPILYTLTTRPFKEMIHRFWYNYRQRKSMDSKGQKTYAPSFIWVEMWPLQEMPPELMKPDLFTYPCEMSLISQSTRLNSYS
Experimental: (§1) To determine the binding characteristics of wild type and mutant peptides, HEK293T cells expressing LGR7 or LGR8 were grown to 90% confluence, collected by centrifugation at 3000×g for 2 min, and washed two times in 2 ml of ice-cold binding buffer. Cells were resuspended in ice-cold binding buffer, and aliquots of cell suspension were incubated with increasing doses of purified recombinant peptides in the presence of 0.025 pmol of ^125I-labeled RLN2 tracer (Phoenix Pharmaceuticals, Burlingame, Calif.) at room temperature for 2 h. After washing three times in an ice-cold binding buffer, radioactivity bound to the cells was measured using a γ-counter (EG&G Wallace, Gaithersburg, Md.). Total binding was determined in the absence, and nonspecific binding in the presence, of 25 nmol of unlabeled RLN2. In regular assays, total binding was ˜30,000 cpm, and nonspecific binding amounted to less than 20% of the total binding. Data points were collected in triplicate, and similar results were obtained in at least two independent assays.
(§2) Receptor-activation and receptor binding activity curves generated in nonlinear regression analyses (Prism; GraphPad Software, San Diego, Calif.) were evaluated relative to the samples without hormone treatment. In all cases data are reported as the mean±S.E. of assays in triplicate or quadruplicate. Statistically significant responses (p<0.05) were determined for each stimulated response to the average nonspecific response from control samples using analysis of variance and Student's t test.

LGR8 [2] = molecular target: T2, LGR8 (Homo sapiens, UniProt Q8WXD0); experiment: Receptor-activation analysis: cAMP production in LGR8-expressing HEK293T cells; assay type: cell-based; settings: for LGR8-activation activity (result in words): LGR8-expressing HEK293T cells
T2 construct: HEK293T cells stably expressing recombinant LGR7 or LGR8; expressed in transfected cells
Experimental: (§3) The bioactivity of relaxin family peptides was determined based on the stimulation of adenylate cyclase activity in HEK293T cells stably expressing recombinant LGR7 or LGR8. Stable LGR7- or LGR8-expressing cells were maintained in Dulbecco's modified Eagle's medium/F-12 media supplemented with […] Zeocin (Invitrogen). After seeding at a density of 2×10^5 cells per well in 500 μl of Dulbecco's modified Eagle's medium/F-12 medium containing 0.1% bovine serum albumin in 48-well plates, cells were preincubated at 37° C. for 30 min in the presence of 0.25 mM 3-isobutyl-1-methylxanthine before treatment with increasing concentrations of peptides (from 0 to 100 nM) in quadruplicate. Twelve hours after treatment, the culture was reacted with acetic anhydride/triethylamine, and total cAMP content in cell lysates was measured using a specific cAMP radioimmunoassay. A nontagged human RLN2 peptide was used as a standard to verify the bioactivity of tagged RLN2 peptides.
as §2

LGR8 [3] = molecular target: T2, LGR8; experiment: Receptor-binding assay: competition for 125I-labeled RLN2 binding to LGR8-expressing HEK293T cells; settings: for LGR8-binding activity (result in words): competition for labeled RLN2 binding to LGR8
Experimental: as §1, §2

LGR7 [4] = molecular target: T1, LGR7; experiment: Receptor-activation analysis: cAMP production in LGR7-expressing HEK293T cells; assay type: cell-based; settings: for LGR7-activation activity (result in words): LGR7-expressing HEK293T cells
Experimental: as §3, §2

T2 sequence (Q8WXD0 whole entry): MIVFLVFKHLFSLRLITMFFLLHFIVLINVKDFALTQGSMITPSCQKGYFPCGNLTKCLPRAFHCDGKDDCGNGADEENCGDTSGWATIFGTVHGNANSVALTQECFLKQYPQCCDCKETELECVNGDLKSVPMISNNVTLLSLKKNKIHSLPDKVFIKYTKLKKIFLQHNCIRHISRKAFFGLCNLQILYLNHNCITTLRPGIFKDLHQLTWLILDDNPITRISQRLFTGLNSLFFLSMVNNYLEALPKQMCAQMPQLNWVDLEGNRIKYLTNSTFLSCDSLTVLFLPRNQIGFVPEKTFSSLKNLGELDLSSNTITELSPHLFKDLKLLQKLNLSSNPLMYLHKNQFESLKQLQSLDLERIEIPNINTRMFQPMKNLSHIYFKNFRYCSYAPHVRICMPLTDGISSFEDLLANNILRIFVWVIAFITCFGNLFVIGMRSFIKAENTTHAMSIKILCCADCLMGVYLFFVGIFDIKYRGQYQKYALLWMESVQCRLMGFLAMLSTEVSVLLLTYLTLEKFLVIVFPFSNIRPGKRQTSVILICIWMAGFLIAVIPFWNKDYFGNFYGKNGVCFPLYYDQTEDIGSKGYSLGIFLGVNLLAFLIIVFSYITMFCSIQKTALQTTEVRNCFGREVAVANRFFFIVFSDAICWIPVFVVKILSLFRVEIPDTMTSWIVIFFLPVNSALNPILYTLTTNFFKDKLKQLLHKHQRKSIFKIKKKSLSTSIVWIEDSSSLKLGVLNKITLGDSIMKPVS

## RLN2^A22-23: RLN2 mutant with alanine substitution at the A22-23 region of the A chain (chain 1 SWMEEVIKLCGRELVRAQIAICGMSTWSHHHHHH; chain 2 QLYSALANKCCHVGCTKRSLAAAC; not fully specified; ends and bridges not checked)
LGR7 [1]
  LGR7-binding activity (result in words): reduced affinity for LGR7
LGR8 [2]
  LGR8-activation activity (result in words): ablates LGR8, but not LGR7, activation activity; also recorded: almost abolished
LGR8 [3]
  LGR8-binding activity (result in words): lost its LGR8-binding activity

## RLN2 R^A22A: RLN2 mutant with alanine substitution at the ArgA22 position (chain 1 SWMEEVIKLCGRELVRAQIAICGMSTWSHHHHHH; chain 2 QLYSALANKCCHVGCTKRSLAAFC; not fully specified; ends and bridges not checked)
LGR7 [1]
  LGR7-binding activity (result in words): affinities similar to that of wild type peptides
LGR8 [2]
  LGR8-activation activity (result in words): minimal effect
LGR7 [4]
  LGR7-activation activity (result in words): minimal effect

## RLN2 P^A23A: RLN2 mutant with alanine substitution at the PheA23 position (chain 1 SWMEEVIKLCGRELVRAQIAICGMSTWSHHHHHH; chain 2 QLYSALANKCCHVGCTKRSLARAC; not fully specified; ends and bridges not checked)
LGR7 [1]; listed as RLN2 FA23A
  LGR7-binding activity (result in words): affinities similar to that of wild type peptides
LGR7 [1]; listed as RLN2 F^A23A
  LGR7-binding activity (result in words): without an effect on LGR7-binding activity
LGR8 [2]; listed as RLN2 FA23A
  LGR8-activation activity (result in words): lacks an LGR8-activation activity
LGR8 [2]; listed as RLN2 F^A23A
  LGR8-activation activity (result in words): ablated
LGR7 [4]; listed as FA23A
  LGR7-activation activity (result in words): preferentially activate LGR7
LGR7 [4]; listed as RLN2 FA23A
  LGR7-activation activity (result in words): retains an LGR7-activation activity similar to that of wild type peptides
LGR8 [3]; listed as RLN2 FA23A
  LGR8-binding activity (result in words): significantly reduced the affinity for LGR8
LGR8 [3]; listed as RLN2 F^A23A
  LGR8-binding activity (result in words): significantly reduced

B1: WT RLN2: recombinant tagged wild type human relaxin H2 (RLN2) (protein, listed as Homo sapiens)
chain: MPRLFFFHLLGVCLLLNQFSRAVADSWMEEVIKLCGRELVRAQIAICGMSTWSKRSLSQEDAPQTPRPVAEIVPSFINKDTETINMMSEFVANLPQELKLTLSEMQPALPQLQQHVPVLKDSSLLFEEFKKLIRNRQSEAADSSPSELKYLGLDTHSRKKRQLYSALANKCCHVGCTKRSLARFC
modifications: tag; RLN2 polypeptide
LGR7 [1]; 125I-labeled RLN2 tracer, LGR7-expressing HEK293T cells, mean ± S.E.
  pIC50 in competition for RLN2 binding to LGR7: 8.72 ± 0.06
LGR8 [2]; HEK293T cells stably expressing LGR8, mean ± S.E., ND = pEC50 not measurable
  pEC50 on the activation of LGR8: 7.41 ± 0.14
LGR8 [2]
  LGR8-activation activity (result in words): activates both receptors at the nanomolar range
LGR7 [4]; HEK293T cells stably expressing LGR7, mean ± S.E., ND = pEC50 not measurable
  pEC50 on the activation of LGR7: 9.30 ± 0.04
LGR7 [4]
  LGR7-activation activity (result in words): activates both receptors at the nanomolar range
LGR8 [3]; 125I-labeled RLN2 tracer, LGR8-expressing HEK293T cells, mean ± S.E., ND = pIC50 not measurable
  pIC50 in competition for RLN2 binding to LGR8: 7.90 ± 0.16
